Measurements taken from IntAct's records for PubMed 9537418.

B1: Merlin (Homo sapiens), P35240-3 (parent)
chain: MAGAIASRMSFSSLKRKQPKTFTVRIVTMDAEMEFNCEMKWKGKDLFDLVCRTLGLRETWFFGLQYTIKDTVAWLKMDKKVLDHDVSKEEPVTFHFLAKFYPENAEEELVQEITQHLFFLQVKKQILDEKIYCPPEASVLLASYAVQAKYGDYDPSVHKRGFLAQEELLPKRVINLYQMTPEMWEERITAWYAEHRGRARDEAEMEYLKIAQDLEMYGVNYFAIRNKKGTELLLGVDALGLHIYDPENRLTPKISFPWNEIRNISYSDKEFTIKPLDKKIDVFKFNSSKLRVNKLILQLCIGNHDLFMRRRKADSLEVQQMKAQAREEKARKQMERQRLAREKQMREEAERTRDELERRLLQMKEEATMANEALMRSEETADLLAEKAQITEEEAKLLAQKAAEAEQEMQRIKATAIRTEEEKRLMEQKVLEAEVLALKMAEESERRAKEADQLKQDLQEAREAERRAKQKLLEIATKPTYPPMNPIPAPLPPDIPSFNLIGDSLSFDFKDTDMKRLSMEIEKEKVEYMEKSKHLQEQLNELKTEIEALKLKERETALDILHNENSDRGGSSKHNTIKKPQAQGRRPICI

Variants of: B1
Conditions: with sptb2_human SPTBN1, Q01082
sptb2_human SPTBN1, Q01082, sequence (Q01082 whole entry): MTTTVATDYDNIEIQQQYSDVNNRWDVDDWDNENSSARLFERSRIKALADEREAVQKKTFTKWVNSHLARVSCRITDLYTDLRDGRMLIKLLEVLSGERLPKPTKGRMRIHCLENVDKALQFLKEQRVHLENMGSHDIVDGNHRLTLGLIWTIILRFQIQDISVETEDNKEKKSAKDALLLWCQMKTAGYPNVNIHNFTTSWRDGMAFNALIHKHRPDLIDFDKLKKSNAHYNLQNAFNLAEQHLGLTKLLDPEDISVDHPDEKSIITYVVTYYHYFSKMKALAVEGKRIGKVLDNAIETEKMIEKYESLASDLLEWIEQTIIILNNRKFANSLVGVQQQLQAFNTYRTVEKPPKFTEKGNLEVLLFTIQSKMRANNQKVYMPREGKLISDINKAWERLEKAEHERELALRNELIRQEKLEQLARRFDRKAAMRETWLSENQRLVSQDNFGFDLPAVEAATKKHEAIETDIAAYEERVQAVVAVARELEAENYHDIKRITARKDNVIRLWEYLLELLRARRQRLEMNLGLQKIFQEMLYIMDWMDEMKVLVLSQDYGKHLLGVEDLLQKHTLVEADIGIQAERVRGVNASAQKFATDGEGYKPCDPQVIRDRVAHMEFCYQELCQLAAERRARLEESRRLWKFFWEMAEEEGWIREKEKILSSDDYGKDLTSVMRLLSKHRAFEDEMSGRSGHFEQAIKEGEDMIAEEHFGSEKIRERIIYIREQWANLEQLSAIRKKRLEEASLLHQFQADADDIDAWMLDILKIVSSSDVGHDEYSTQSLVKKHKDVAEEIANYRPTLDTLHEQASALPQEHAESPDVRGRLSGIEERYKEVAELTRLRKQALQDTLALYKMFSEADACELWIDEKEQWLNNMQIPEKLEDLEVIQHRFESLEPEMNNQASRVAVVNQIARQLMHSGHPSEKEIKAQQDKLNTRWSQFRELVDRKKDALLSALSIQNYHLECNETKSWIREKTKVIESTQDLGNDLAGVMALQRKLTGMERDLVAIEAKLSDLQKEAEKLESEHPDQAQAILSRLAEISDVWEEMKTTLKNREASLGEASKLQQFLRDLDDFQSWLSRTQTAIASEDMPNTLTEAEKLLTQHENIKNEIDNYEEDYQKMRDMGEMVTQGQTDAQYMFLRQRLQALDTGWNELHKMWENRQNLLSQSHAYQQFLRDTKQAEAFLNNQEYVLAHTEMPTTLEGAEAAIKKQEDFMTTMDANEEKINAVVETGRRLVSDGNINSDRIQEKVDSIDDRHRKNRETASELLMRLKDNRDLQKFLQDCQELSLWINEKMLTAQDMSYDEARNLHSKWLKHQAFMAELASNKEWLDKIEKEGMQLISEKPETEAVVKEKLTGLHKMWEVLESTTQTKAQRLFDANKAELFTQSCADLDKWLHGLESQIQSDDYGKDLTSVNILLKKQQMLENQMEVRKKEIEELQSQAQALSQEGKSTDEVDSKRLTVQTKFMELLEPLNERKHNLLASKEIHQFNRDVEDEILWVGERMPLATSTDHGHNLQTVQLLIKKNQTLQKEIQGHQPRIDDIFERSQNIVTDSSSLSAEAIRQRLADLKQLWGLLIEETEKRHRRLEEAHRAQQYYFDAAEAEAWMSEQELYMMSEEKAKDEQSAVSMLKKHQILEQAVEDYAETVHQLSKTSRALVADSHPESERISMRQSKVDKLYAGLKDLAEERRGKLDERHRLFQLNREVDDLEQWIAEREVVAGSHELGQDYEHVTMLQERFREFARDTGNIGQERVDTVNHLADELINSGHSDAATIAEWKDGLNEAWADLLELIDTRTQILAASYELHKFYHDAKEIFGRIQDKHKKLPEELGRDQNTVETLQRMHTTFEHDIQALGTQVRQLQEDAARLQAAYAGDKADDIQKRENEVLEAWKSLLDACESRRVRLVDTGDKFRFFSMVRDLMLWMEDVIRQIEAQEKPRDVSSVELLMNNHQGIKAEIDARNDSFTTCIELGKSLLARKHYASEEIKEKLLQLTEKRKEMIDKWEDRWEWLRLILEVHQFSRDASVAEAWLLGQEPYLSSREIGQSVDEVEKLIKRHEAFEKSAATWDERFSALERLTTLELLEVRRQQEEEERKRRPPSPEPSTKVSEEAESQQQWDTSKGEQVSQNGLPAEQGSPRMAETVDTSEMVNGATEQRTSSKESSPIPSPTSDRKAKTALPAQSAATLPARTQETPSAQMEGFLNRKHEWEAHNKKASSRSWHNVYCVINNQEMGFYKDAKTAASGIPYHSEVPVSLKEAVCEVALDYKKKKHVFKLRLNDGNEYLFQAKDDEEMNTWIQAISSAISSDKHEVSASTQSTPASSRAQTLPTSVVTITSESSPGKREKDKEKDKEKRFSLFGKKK

Variant | effect of a mutation on the interaction
MAGAIASRMSFSSLKRKQPKTFTVRIVTMDAEMEFNCEMKWKGKDLFDLVCRTLGLRETWFFGLQYTIKDTVAWLKMDKKVLDHDVSKEEPVTFHFLAKFYPENAEEELVQEITQHLFFLQVKKQILDEKIYCPPEASVLLASYAVQAKYGDYDPSVHKRGFLAQEELLPKRVINLYQMTPEMWEERITAWYAEHRGRARDEAEMEYLKIAQDLEMYGVNYFAIRNKKGTELLLGVDALGLHIYDPENRLTPKISFPWNEIRNISYSDKEFTIKPLDKKIDVFKFNSSKLRVNKLILQLCIGNHDLFMRRRKADSLEVQQMKAQAREEKARKQMERQRLAREKQMREEAERTRDELERRLLQMKEEATMANEALMRSEETADLLAEKAQITEEEAKLLAQKAAEAEQEMQRIKATAIRTEEEKRLMEQKVLEAEVLALKMAEESERRAKEADQLKQDLQEAREAERRAKQKLLEIATKPTYPPMNPIPAPLPPDIPSFNLIGDSLSFDFKDTDMKRLSMEIEKEKVEYMEKSKHLQEPLNELKTEIEALKLKERETALDILHNENSDRGGSSKHNTIKKPQAQGRRPICI [Q538P] | disrupting interaction strength
MAGAIASRMSFSSLKRKQPKTFTVRIVTMDAEMEFNCEMKWKGKDLFDLVCRTLGLRETWFFGLQYTIKDTVAWLKMDKKVLDHDVSKEEPVTFHFLAKFYPENAEEELVQEITQHLFFLQVKKQILDEKIYCPPEASVLLASYAVQAKYGDYDPSVHKRGFLAQEELLPKRVINLYQMTPEMWEERITAWYAEHRGRARDEAEMEYLKIAQDLEMYGVNYFAIRNKKGTELLLGVDALGLHIYDPENRLTPKISFPWNEIRNISYSDKEFTIKPLDKKIDVFKFNSSKLRVNKLILQLCIGNHDLFMRRRKADSLEVQQMKAQAREEKARKQMERQRLAREKQMREEAERTRDELERRPLQMKEEATMANEALMRSEETADLLAEKAQITEEEAKLLAQKAAEAEQEMQRIKATAIRTEEEKRLMEQKVLEAEVLALKMAEESERRAKEADQLKQDLQEAREAERRAKQKLLEIATKPTYPPMNPIPAPLPPDIPSFNLIGDSLSFDFKDTDMKRLSMEIEKEKVEYMEKSKHLQEQLNELKTEIEALKLKERETALDILHNENSDRGGSSKHNTIKKPQAQGRRPICI [L360P] | decreasing interaction strength
MAGAIASRMSFSSLKRKQPKTFTVRIVTMDAEMEFNCEMKWKGKDLFDLVCRTLGLRETWFFGLQYTIKDTVAWLKMDKKVLDHDVSKEEPVTFHFLAKFYPENAEEELVQEITQHLFFLQVKKQILDEKIYCPPEASVLLASYAVQAKYGDYDPSVHKRGFLAQEELLPKRVINLYQMTPEMWEERITAWYAEHRGRARDEAEMEYLKIAQDLEMYGVNYFAIRNKKGTELLLGVDALGLHIYDPENRLTPKISFPWNEIRNISYSDKEFTIKPLDKKIDVFKFNSSKLRVNKLILQLCIGNHDLFMRRRKADSLEVQQMKAQAREEKARKQMERQRLAREKQMREEAERTRDELERRLLQMKEEATMANEALMRSEETADLLAEKAQITEEEAKLLAQKAAEAEQEMQRIKATAIRTEEEKRLMEQKVLEAEVLALKMAEESERRAKEADQLKQDLQEAREAERRAKQKLLEIATKPTYPPMNPIPAPLPPDIPSFNLIGDSLSFDFKDTDMKRLSMEIEKEKVEYMEKSKHPQEQLNELKTEIEALKLKERETALDILHNENSDRGGSSKHNTIKKPQAQGRRPICI [L535P] | decreasing interaction strength
